Measured values taken from patent US20210113484A1 (NATIONAL UNIVERSITY OF SINGAPORE, published 2021).
Substitutions are numbered along the chain they refer to. In names and notes the source's numbering stands.

What was measured:
[1] = tested on: h6NE-GFPuvTEV (h6NE-GFPuv fusion with a TEV protease site between the AfFtn subunit and GFPuv) [GFP: P42212]
[2] = target: T1, AfFtn with truncated C-terminus and E65K, E128K, E131K, D138A, net positive interior [AfFtnΔC(+)] (Archaeoglobus fulgidus); experiment: gel densitometry of purified protein fractions
T1 construct: 24 copies in the empty shell; about 23 copies where it surrounds one fusion subunit; also called tES(+)
T1 chain: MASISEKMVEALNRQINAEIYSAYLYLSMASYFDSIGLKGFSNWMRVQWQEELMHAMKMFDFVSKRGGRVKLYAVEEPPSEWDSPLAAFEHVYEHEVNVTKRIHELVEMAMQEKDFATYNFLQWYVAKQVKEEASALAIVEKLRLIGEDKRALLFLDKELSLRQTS

native GFPuv (un-fused) [3] = target: T2, native GFPuv (un-fused) (UniProt P42212 1-238 = GFP); experiment: cell-free encapsulation by pH shift 5.8 to 8; GFPuv fluorescence and thermal shift
T2 construct: Any tag on the un-fused protein is not described
Protocol: (§1) FIGS. 18A-18D show effect of different molar ratios and charge of tES subunits on native GFPuv encapsulation in vitro. […] With increasing amount of GFPuv, denaturation temperature of tES(+)F116H increases. […] Negligible change in the denaturation temperature for 60:10 tES(−)F116H:GFPuv indicates unsuccessful encapsulation of GFPuv within tES(−)F116H as compared to tES(+)F116H. In 18A+ve control is tES:tES-GFPuv (0.5 μM); −ve control is GFPuv. In 18B+ve controls are tES(+)F116H:tES-GFPuv and tES(−)F116H:tES-GFPuv.
(§2) GFP, and HRPC and rLuc activities were determined through fluorescence, colorimetric and luminescence assays, respectively, both from cell lysate and purified proteins. For GFP, fluorescence of tES(+)F116H/tES-GFPuv, tES-GFPuv, and GFPuv was read at 508 nm in a 96-well black polystyrene plate (Fisher Scientific) with excitation wavelength fixed at 395 nm was performed or fluorescence read at 508 nm in a 96-well black polystyrene plate (Fisher Scientific) using supernatant from 10-mg bacterial pellet (induced at 0.8 OD and cultured for 24h). […] Absorbance was recorded at 450 nm. […] Following chromatographic purification, equimolar concentrations (500 nM) of purified h6NE-luciferase(+), h6NEluciferase(−), and h6NE-luciferase(+/−) were evaluated for luciferase activity using D-luciferin potassium salt as a substrate.

[4] = target: T3, native rLuc (un-fused Renilla luciferase) (Renilla reniformis, UniProt P27652 1-311); experiment: cell-free encapsulation by pH shift 5.8 to 8; rLuc luminescence
T3 sequence (looked up): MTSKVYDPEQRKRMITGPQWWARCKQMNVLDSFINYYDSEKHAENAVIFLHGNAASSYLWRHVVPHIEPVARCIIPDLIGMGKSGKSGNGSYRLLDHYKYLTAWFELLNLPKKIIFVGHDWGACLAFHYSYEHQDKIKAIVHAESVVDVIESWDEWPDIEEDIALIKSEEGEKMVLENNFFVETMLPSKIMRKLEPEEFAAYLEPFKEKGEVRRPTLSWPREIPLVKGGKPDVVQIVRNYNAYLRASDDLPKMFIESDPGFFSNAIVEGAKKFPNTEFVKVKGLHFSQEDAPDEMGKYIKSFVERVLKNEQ
Protocol: The TMB substrate was added for color development and the reaction stopped using 2M H₂SO₄ after 5 mins. Absorbance was recorded at 450 nm. All luciferase reactions took place at ambient temperature (24-27° C.) in a 96-well plate with white interior and were performed at least in triplicates. Following chromatographic purification, equimolar concentrations (500 nM) of purified h6NE-luciferase(+), h6NEluciferase(−), and h6NE-luciferase(+/−) were evaluated for luciferase activity using D-luciferin potassium salt as a substrate. The reaction was initiated by injecting 50μl buffer containing D-luciferin potassium salt (final concentration 200 μM), 50 mM Tris-Cl pH 7.5, 10 mM MgCl₂, 2 mM EDTA, 100 μM ATP, 0.1% BSA, to a 50μl protein sample. Purified tES(+)F116H/tES-rLuc, tES-rLuc, and rLuc were evaluated using Renilla luciferase kit (Promega) with some modifications in the manufacturer's instructions. […] The signal was integrated for 1 min with a 2 s delay and luminescence was measured in Relative Light Units (RLU). […] The steady-state initial velocities, VO, (RLU/sec) for h6NE-luciferase(+/−) and recombinant luciferase were determined by initiating the reaction with different concentration of D-luciferin potassium salt. […] All readings were recorded on a Perkin Elmer Plate reader. […]

[5] = target: T4, native HRPC (un-fused horseradish peroxidase isoenzyme C) (horseradish, UniProt P00433 31-338); experiment: cell-free encapsulation by pH shift 5.8 to 8; HRPC activity and thermal shift
T4 sequence (looked up): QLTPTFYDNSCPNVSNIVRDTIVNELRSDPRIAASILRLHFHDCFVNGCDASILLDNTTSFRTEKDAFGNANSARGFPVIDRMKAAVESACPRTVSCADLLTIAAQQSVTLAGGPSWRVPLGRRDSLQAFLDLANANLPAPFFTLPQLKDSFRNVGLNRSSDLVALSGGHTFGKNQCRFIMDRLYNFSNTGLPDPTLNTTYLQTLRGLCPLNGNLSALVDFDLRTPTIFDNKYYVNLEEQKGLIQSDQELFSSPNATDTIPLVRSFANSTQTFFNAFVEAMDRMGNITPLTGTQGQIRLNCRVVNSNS
Protocol: (§3) With increasing amount of HRPC, denaturation temperature of tES(+)F116H increases. […] Negligible change in the denaturation temperature for 60:10 tES(−)F116H:HRPC indicates unsuccessful encapsulation of HRPC within tES(−)F116H as compared to tES(+)F116H.
as §2, with “24h). The activity of tES(+)F116H/tES-HRPC, tES-HRPC, and HRPC was assayed using TMB substrate in a 96-well crystal-clear polystyrene plate (Greiner Bio-One). Briefly, fractions were incubated in assay buffer containing 25 mM Tris-HCl pH-8.0, 5 mM CaCl₂, 2.5 μM hemin for 5 mins.” for “24h).”

[6] = target: T4, native HRPC (un-fused horseradish …); experiment: cell-free encapsulation by pH shift 5.8 to 8; SEC fractions' HRPC activity and thermal shift assay
Protocol: as §3
as §2, with “24h). The activity of tES(+)F116H/tES-HRPC, tES-HRPC, and HRPC was assayed using TMB substrate in a 96-well crystal-clear polystyrene plate (Greiner Bio-One). Briefly, fractions were incubated in assay buffer containing 25 mM Tris-HCl pH-8.0, 5 mM CaCl₂, 2.5 μM hemin for 5 mins.” for “24h).”

native GFPuv (un-fused) [7] = target: T2, native GFPuv (un-fused); experiment: cell-free encapsulation by pH shift 5.8 to 8; thermal shift assay
Protocol: as §1
Inclusion body purification protocol is same as herein described. […] Fractions around the eluted peak were collected and their activity analyzed to identify fractions containing the POI.

TEVprotease (Sigma)
TEV protease cleavage, Western blot [1]: the protease cleaved h6NE-GFPuvTEV

B1: h6NE-HRPC (His-tagged AfFtn subunit with truncated C-terminus fused to horseradish peroxidase isoenzyme C, C-terminal c-Myc epitope) (other)
chain: MASISEKMVEALNRQINAEIYSAYLYLSMASYFDSIGLKGFSNWMRVQWQEELMHAMKMFDFVSERGGRVKLYAVEEPPSEWDSPLAAFEHVYEHEVNVTKRIHELVEMAMQEKDFATYNFLQWYVAEQVEEEASALDIVEKLRLIGEDKRALLFLDKELSLRQTSQLTPTFYDNSCPNVSNIVRDTIVNELRSDPRIAASILRLHFHDCFVNGCDASILLDNTTSFRTEKDAFGNANSARGFPVIDRMKAAVESACPRTVSCADLLTIAAQQSVTLAGGPSWRVPLGRRDSLQAFLDLANANLPAPFFTLPQLKDSFRNVGLNRSSDLVALSGGHTFGKNQCRFIMDRLYNFSNTGLPDPTLNTTYLQTLRGLCPLNGNLSALVDFDLRTPTIFDNKYYVNLEEQKGLIQSDQELFSSPNATDTIPLVRSFANSTQTFFNAFVEAMDRMGNITPLTGTQGQIRLNCRVVNSNS
notes: also called tES-HRPC; tES-HRP; not shown: N-terminal His-tag from pBAD/HisB
ratio of fusion subunit to encapsulating tES subunits [2]: 19 tES subunits per fusion subunit

B2: tES-rLuc (His-tagged AfFtn subunit with truncated C-terminus fused to Renilla luciferase) (other)
chain: T1 chain with K65E, K128E, K131E, A138D
notes: also called tES-rLuc fusion subunit; not shown: N-terminal His-tag from pBAD/HisB; Renilla luciferase (rLuc), a 36 kDa protein from sea pansy, Renilla reniformis
ratio of fusion subunit to encapsulating tES subunits [2]: 20 tES subunits per fusion subunit

B3: tES(+)F116H (other)
chain: T1 chain with F116H
notes: also called F116HAfFtnΔC(+); AfFtn net positive variant subunit with truncation of unstructured C-terminus and F116H mutation
binding result (native GFPuv (un-fused) [3]): binds | binding result [4]: binds | binding result [5]: binds

B4: tES(-)F116H (other)
chain: T1 chain with K65E, F116H, K128E, K131E, A138D
notes: also called AfFtn subunit with truncation of unstructured C-terminus and F116H mutation
binding result [6]: no binding (tested: molar ratios of 60:8 and 60:10) | binding result (native GFPuv (un-fused) [7]): no binding (tested: 60:10 molar ratio)
